From patent US20240207432A1 (BIOSION, published 2024)

Columns and labels:
[1] = target: T1, cynomolgus TROP2-his protein (cynomolgus monkey, UniProt P09758 27-272 (human entry), limits assumed); test: indirect ELISA, cynomolgus TROP2-his coated, OD(450-630)
T1 construct: no cleavage site is stated; also called Cynomolgus monkey TROP2-his protein; monkey TROP2
T1 chain: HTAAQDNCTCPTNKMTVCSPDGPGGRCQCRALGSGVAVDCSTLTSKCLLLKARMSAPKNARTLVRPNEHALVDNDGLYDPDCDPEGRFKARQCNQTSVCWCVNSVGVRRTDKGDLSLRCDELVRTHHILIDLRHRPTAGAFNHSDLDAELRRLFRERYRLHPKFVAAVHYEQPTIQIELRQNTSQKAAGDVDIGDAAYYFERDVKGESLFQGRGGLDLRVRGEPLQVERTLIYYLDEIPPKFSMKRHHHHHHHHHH
Method: The anti-TROP2 antibodies of the disclosure were tested for their cross-reaction with cynomolgus TROP2 proteins. Briefly, 96-well micro plates were coated with 100 μl 2 μg/ml cynomolgus TROP2-his proteins (prepared in-house with SEQ ID NO: 70) in carbonate/bicarbonate buffer (pH 9.6) overnight at 4° C. ELISA plates were washed once with wash buffer (PBS+0.05% v/v Tween-20, PBST) and then blocked with 200 μl/well blocking buffer (5% w/v non-fatty milk in PBST) for 2 hours at 37° C. […] After a final wash, plates were incubated with 100 μl/well TMB (Innoreagents) at room temperature. The reaction was stopped 3-10 minutes later at room temperature with 50 μl/well 1M H₂SO₄, and the absorbance of each well was read on a microplate reader using dual wavelength mode with 450 nm for TMB and 630 nm as the reference wavelength. The OD (450-630) values were plotted against antibody concentration. Data was analyzed using Graphpad Prism software and EC₅₀ values were reported.

[2] = target: T2, human TROP2-his protein (human, UniProt P09758 27-274); test: capture ELISA, antibody captured on anti-human IgG Fc coat, biotin human TROP2-his in solution, OD(450-630)
T2 construct: Biotin-labelled in the ELISAs, unlabelled analyte in Biacore; also called biotin-labeled human TROP2-his protein; biotin human Trop2-his
T2 sequence: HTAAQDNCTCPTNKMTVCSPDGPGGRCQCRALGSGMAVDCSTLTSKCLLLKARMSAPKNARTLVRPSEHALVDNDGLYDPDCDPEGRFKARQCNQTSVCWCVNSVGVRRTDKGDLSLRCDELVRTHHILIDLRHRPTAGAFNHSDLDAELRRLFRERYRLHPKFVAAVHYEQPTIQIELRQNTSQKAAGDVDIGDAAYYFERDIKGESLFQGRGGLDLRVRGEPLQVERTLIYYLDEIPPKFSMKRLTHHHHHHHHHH
Method: Plates were washed once with wash buffer (PBS+0.05% v/v Tween-20, PBST) and then blocked with 200 μl/well blocking buffer (5% w/v non-fatty milk in PBST) for 2 hours at 37° C. […] Plates containing captured anti-TROP2 antibodies were incubated with biotin-labeled human TROP2-his protein (prepared in house, SEQ ID NO: 67, 56.7 ng/mL in 2.5% w/v non-fatty milk in PBST, 100 μl/well) for 40 minutes at 37° C., washed 4 times, and incubated with streptavidin conjugated HRP (1:10000 dilution in PBST, Jackson Immuno Research, Cat #016-030-084, 100 μl/well) for 40 minutes at 37° C. After a final wash, plates were incubated with 100 μl/well ELISA substrate TMB (Innoreagents, Cat #TMB-S-002) at room temperature. The reaction was stopped in 3-10 minutes at room temperature with 50 μl/well 1M H₂SO₄, and the absorbance of each well was read on a microplate reader using dual wavelength mode with 450 nm for TMB and 630 nm as the reference wavelength. The OD (450-630) values were plotted against antibody concentration. Data was analyzed using Graphpad Prism software and EC₅₀ values were reported.
For the capture ELISA, AffiniPure Goat Anti-Human IgG, Fcγ fragment specific (Jackson Immuno Research, Cat #109-005-098) was used instead of AffiniPure Goat Anti-Mouse IgG, Fcγ fragment specific, 100 μl/well.

[3] = target: T2, human TROP2-his protein; test: competitive ELISA: BM1 coated, antibody premixed with biotin human TROP2-his; blocked: binding of TROP2-his to coated BM1 (self-competition), OD falls from about 1.9 to about 0.05
[4] = target: T2, human TROP2-his protein; test: competitive ELISA: mouse A1E11A12D1 coated at 2 ug/mL, antibody premixed with biotin human TROP2-his; blocked: binding of TROP2-his to coated A1E11A12D1; no lower plateau reached at 80 nM
Method: (§1) The mouse anti-TROP2 antibodies were tested for epitope binding in a competitive ELISA assay. […] ELISA plates were washed once with wash buffer (PBS+0.05% v/v Tween-20, PBST) and then blocked with 200 μl blocking buffer (5% w/v non-fatty milk in PBST) for 2 hours at 37° C. While blocking, the anti-TROP2 antibodies or controls were diluted with biotin labeled human TROP2-his protein (SEQ ID NO: 67, 34 ng/mL in 2.5% wA non-fatty milk in PBST), starting at 80 nM with a 5-fold serial dilution, and incubated at room temperature for 40 minutes. After plate washing for 4 times, the antibody/TROP2-his protein mixtures were added to the antibody coated plates, 100 μl per well. After incubation at 37° C. for 40 minutes, plates were washed 4 times again using wash buffer. Then the plates were added and incubated with 100 μl Peroxidase Streptavidin (1:10000 dilution in PBST buffer. Jackson Immunoresearch, Cat #016-030-084) for 40 minutes at 37° C. Plates were washed again using wash buffer. Finally, TMB was added and the reaction was stopped using 1M H₂SO₄. The absorbance of each well was read on a microplate reader using dual wavelength mode with 450 nm for TMB and 630 nm as the reference wavelength, and the OD (450-630) values were plotted against antibody concentration. Data was analyzed using Graphpad Prism software and IC₅₀ values were reported.

[5] = target: T2, human TROP2-his protein; test: competitive ELISA: mouse A1H3C5H8E12 coated at 2 ug/mL, antibody premixed with biotin human TROP2-his; blocked: binding of TROP2-his to coated A1H3C5H8E12 (self-competition); no lower plateau reached at 80 nM
Method: as §1

[6] = target: T2, human TROP2-his protein; test: competitive ELISA: mouse A1E4F7D4 coated at 2 ug/mL, antibody premixed with biotin human TROP2-his; blocked: binding of TROP2-his to coated A1E4F7D4 (self-competition)
Method: as §1

B1: benchmark (in house prepared sacituzumab) (antibody, human IgG1, kappa, V domains shown)
VH: SVQLQQSGSELKKPGASVKVSCKASGYTFTNYGMNWVKQAPGQGLKWMGWINTYTGEPTYTDDFKGRFAFSLDTSVSTAYLQISSLKADDTAVYFCARGGFGSSYWYFDVWGQGSLVTVSS
VL: DIQLTQSPSSLSASVGDRVSITCKASQDVSIAVAWYQQKPGKAPKLLIYSASYRYTGVPDRFSGSGSGTDFTLTISSLQPEDFAVYYCQQHYITPLTFGAGTKVEIKR
notes: also called BM; BM1
B1 showed an EC50 [1] of 0.138 nM, an EC50 [2] of 0.357 nM and an IC50 [3] of 0.88 nM.

B2: mouse antibody A1H3C5H8E12 (antibody, V domains shown)
VH: QVQLQQSGAELVRPGTSVKMSCKAAGYTFTNYWIDWVKQRPGHGLEWIGNIFPGGFYTNYNEKFKGKATLTADTSSSTAYMQLSSLTSEDSAIYYCARGGVFDYWGQGTTLTVSS
VL: DILLTQSPAILSVSPGERVSFSCRASQSIGTSIHWYQQRTNGSPRLLIKYASESISGIPSRFSGSGSGTDFTLSINSVESEDIADYYCQQSNSWPYTFGGGTKLEIK
notes: Mouse monoclonal IgG purified from hybridoma supernatant
B2 showed an IC50 [4] of 9.92 nM and an IC50 [5] of 7 nM.

B3: mouse antibody A1E4F7D4 (antibody, V domains shown)
VH: QVQLQQSGAELAKPGTSVKMSCEASGYSFTTHWIHWMKQRPGQGLEWIGTIFPSNAYAVYNQKFRDRAIMTADRSSTTAYIQLTGLTSEDSAVYYCARASYFDYWGQGTTLTVSS
VL: DILLTQSPATLSVSPGERVTFSCRASQNIGTSIHWFQQRTTGSPRLLIKYASESISGIPSRFSGSGSGTDFTLHINSVESEDIAHYYCQHSHSWPFTFGSGTKLEIQ
notes: Mouse monoclonal IgG purified from hybridoma supernatant; also called Mouse A1E4F7D4
B3 was tested, and the IC50 [6] was 0.0675 nM.
